B1: ADI-14499 (antibody, V domains shown)
VH: QVQLVQSGPALVKPTQTLTLTCTFSGFSLTTRGVGVGWIRQTPGKALECLGFIYWDDDMNYNPSLRGRVTITRDTSKNQVVLTMTNMAPVDTGTYYCVHSDLYDSSGYYLYYFDYWGQGTLVTVSS
VL: DIRLTQSPSSLSASVGDRVTITCRASQPIASYLNWYQQKPGKAPKLLIYAASNLQSGVPSTFSGRGSGTDFSLTISTLQPEDIATYYCQQSYTSPYTFGQGTKVEIK
notes: full-length IgG (yeast-expressed); also called Antibody Number 60; Ab# 60
B2: ADI-14510 (antibody, V domains shown)
VH: QVQLQQWGAEVKKPGSSVKVSCKASGVALSSVAISWVRQAPGQGLEWMGGILPGFDKVRFAQEFENRATLTADTARDIAYMELSGLRSDDTAVYYCAIIDPQDCTSASCFWVNWLDPWGQGTLVTVSS
VL: ETTLTQSPGTLTVSPGERATLSCRASQSIIRNNLAWYQQKPGQAPRLLIYAASNRATDIPDRFSGSGSGTDFTLTISRLEAQDFAVYFCQQYGTSPITFGQGTKVEIK
notes: full-length IgG (yeast-expressed); also called Antibody Number 71; Ab# 71
B3: ADI-14504 (antibody, V domains shown)
VH: EVQLVESGGGLVQPGGSLRLSCAASGFPFSRYNMNWVRQAPGKGLEWVSYISSGSRSIYYADSVKGRFTISRDNAKNSLYLQMNSLRAEDTAVYYCARDLSGSPAYSGSWVWGQGTLVTVSS
VL: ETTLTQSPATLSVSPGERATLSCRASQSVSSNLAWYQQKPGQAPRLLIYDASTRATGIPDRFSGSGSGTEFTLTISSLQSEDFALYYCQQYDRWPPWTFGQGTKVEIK
notes: full-length IgG (yeast-expressed); also called Antibody Number 65; Ab# 65
B4: ADI-14500 (antibody, V domains shown)
VH: EVQLLESGGGLVKPGGSLRLSCAASGFIFNNAWMTWVRQAPGRGLEWVGRIKTNADGGTADYSTPVKGRFAISRDDSTNTLYLQMNSLKTEDTAVYYCTTGPPYKYSDSTGYSVVDYWGQGTLVTVSS
VL: SYELTQPPSASGTPGQRVTISCSGSSSNIGSNYVYWYQQLPGTAPKLLIYSTNQRPSGVPDRFSGSQSGTSASLAISGLRSEDEADYYCAAWDDRLSGPVFGGGTQLTVL
notes: full-length IgG (yeast-expressed); also called Antibody Number 61; Ab# 61
B5: ADI-14506 (antibody, V domains shown)
VH: QVQLVQSGAEVKKPGSSVKVSCKVAGGSFSNYAIAWLRQAPGQGLEWMGGIIPAFNRAMYARKFQDRVTITAYASTTTAYLDITGLRSEDTALYYCARPAGDFGDLKWVRSPFDYWGQGTLITVSS
VL: DIVMTQTPGTLSVSPGERATLSCRASQDVGINLAWYQQKPGQAPRLLIYGASTRATDVPAKFSGSGSGTDFTLTISSLQSEDFGVYYCQEYNDWPPQLSFGPGTKVDIK
notes: full-length IgG (yeast-expressed); also called Antibody Number 67; Ab# 67
B6: ADI-14511 (antibody, V domains shown)
VH: EVQLLESGAEVKKPGSSVKVSCKVAGGTFSDYAISWVRQAPGQGLEYLGGIIPAFKRAMYPRKFQDRVTITADESTSTAYMELRGLRSEDTALYYCARPAGDFGDLKWLRSPFDYWGQGTLVTVSS
VL: B5 VL with M4L, T7S, G9A, Q27E, D28G, V58I, K61R, G84A, E90Q, S99T
notes: full-length IgG (yeast-expressed); also called Antibody Number 72; Ab# 72
B7: ADI-14507 (antibody, V domains shown)
VH: QITLKESGPTLVKPTQTLTLTCTLSGFSLSTPRMGVGWIRQPPGKALEWLALIDWDDDRRYSPSLKTRLTITKDTSKNQVVLRMTDMDPVDTGTYYCVHSDVYTTGGYYLYYFDYWGQGTLVTVSS
VL: DIQVTQSPSSLSASVGDRVTITCRASQTIPSYLNWYQHKPGKAPQLLIYAASNLRSGVPPRFRGSGSGTDFTLTVSSLQPEDFATYFCQQSYSSPYTFGQGTKLEIK
notes: full-length IgG (yeast-expressed); also called Antibody Number 68; Ab# 68

By Kd is commonly meant the equilibrium constant for the complex coming apart. Low readings indicate higher affinity, high ones lower affinity.

Residue numbers refer to the chain shown, from its start.

In the first test the target is T1, RSV F ectodomain stabilized in the postfusion conformation (F ΔFP), subtype A (Respiratory syncytial virus subtype A, UniProt P03420 26-109; P03420 147-524).
T1 construct: extracellular domain; trimer; furin-cleaved; also called Postfusion subtype A
Kind of test: BLI, IgG on AHQ sensor, 100 nM antigen. (In general: BLI is a label-free optical method that tracks binding on a fibre tip over time.)
B1 yielded a Kd of 0.415 nM.

The molecule B2 yielded a Kd of 0.783 nM.

B3 gave a Kd of 0.583 nM.

B4 came in with a Kd of 0.714 nM. This Kd and that of the molecule before are within 1.5-fold of each other.

As to B5, the Kd amounted to 13.1 nM.

With B6, binding was put at a Kd of 0.988 nM.

Consider B7, for which the Kd was determined as 0.266 nM.

Another test deals with T2, RSV F ectodomain stabilized in the postfusion conformation (F ΔFP), subtype B (Respiratory syncytial virus subtype B, UniProt P13843 26-109; P13843 147-524).
T2 construct: extracellular domain; trimer; also called Postfusion subtype B; postF subtype B
Kind of test: BLI, IgG on AHQ sensor, 100 nM antigen.
In turn, B1 had an equilibrium dissociation constant (Kd) of 2.99 nM. This counts as single-digit nanomolar.

In turn, B2 registered a Kd of 0.619 nM.

The molecule B3 displayed a Kd of 0.52 nM. This Kd and that of the molecule before are within 1.5-fold of each other.

B4 came in with a Kd of 0.127 nM.

As for B5, binding was put at a Kd of 24.5 nM.

Regarding B6, the Kd was 1.25 nM.

Turning to B7, the Kd worked out at 0.413 nM.

In another test the target is RSV F protein of recombinant mKate-RSV, subtype B (18537) (Respiratory syncytial virus subtype B …, UniProt P13843 26-574). Kind of test: cell-based or functional assay.
For the molecule B1, the “Neut IC50 subtype B” value is > 10 µg/mL.

In the case of B2, the “Neut IC50 subtype B” value was > 10 µg/mL.

Turning to B3, the “Neut IC50 subtype B” value amounted to 13.4 µg/mL.

On to B4, for which the “Neut IC50 subtype B” value is 0.552 µg/mL.

For the molecule B5, the “Neut IC50 subtype B” value was 6.25 µg/mL.

Turning to B6, the “Neut IC50 subtype B” value was found to be 7.04 µg/mL.

With B7, the “Neut IC50 subtype B” value worked out at 0.173 µg/mL.

Another test deals with RSV F protein of recombinant mKate-RSV, subtype A (strain A2) (Respiratory syncytial virus subtype A …, UniProt P03420 26-574). Kind of test: cell-based or functional assay.
In the case of B1, the “Neut IC50 subtype A” value was > 10 µg/mL.

For the molecule B2, the “Neut IC50 subtype A” value is > 10 µg/mL.

B3: the “Neut IC50 subtype A” value was determined as 2.81 µg/mL.

Take B4: the “Neut IC50 subtype A” value was determined as 0.415 µg/mL.

B5: the “Neut IC50 subtype A” value is > 10 µg/mL.

Turning to B6, the “Neut IC50 subtype A” value is > 10 µg/mL.

Take B7: the “Neut IC50 subtype A” value stood at 0.319 µg/mL.
